Data as given in paper PMC5713450.

What was measured:
Protein A [1] = molecular target: Protein A (UniProt P02976); experiment: MST; conditions: BB: 100 mM NaCl, 20 mM Tris, 10 mM MgCl2, 5 mM KCl, 1 mM CaCl2, pH 7.6, MST in BBT (0.005% Tween 20) at 25 C, 2bind MST with 0.05% Tween 20, EIS in BB + 2 mM …
[2] = molecular target: Protein A (cited studies) (UniProt P02976); experiment: ELONA; conditions: BB: 100 mM NaCl, 20 mM Tris, 10 mM MgCl2, 5 mM KCl, 1 mM CaCl2, pH 7.6; MST in BBT (0.005% Tween 20) at 25 C, 2bind MST with 0.05% Tween 20; EIS in BB + 2 mM …; cited from earlier work
Protein A [3] = molecular target: Protein A (UniProt P02976); experiment: EIS; conditions: apparent; 2 mM ferri-/ferrocyanide; Hill h 1.14 +/- 0.15; 3' C6 spacer and thiol; immobilized on gold with MCH; BB: 100 mM NaCl, 20 mM Tris, 10 mM MgCl2, 5 mM KCl, 1 mM CaCl2, pH 7.6; MST in BBT (0.005% Tween 20) at 25 C, 2bind MST with 0.05% Tween 20; EIS in BB + 2 mM …
[4] = molecular target: Protein A (cited studies) (UniProt P02976); experiment: SPR; conditions: BB: 100 mM NaCl, 20 mM Tris, 10 mM MgCl2, 5 mM KCl, 1 mM CaCl2, pH 7.6, MST in BBT (0.005% Tween 20) at 25 C, 2bind MST with 0.05% Tween 20, EIS in BB + 2 mM …, cited from earlier work
[5] = molecular target: Protein A (cited studies) (UniProt P02976); experiment: RIFTS; conditions: aptamer immobilized on porous silicon, h 2.61 +/- 0.69, 3' amino, BB: 100 mM NaCl, 20 mM Tris, 10 mM MgCl2, 5 mM KCl, 1 mM CaCl2, pH 7.6, MST in BBT (0.005% Tween 20) at 25 C, 2bind MST with 0.05% Tween 20, EIS in BB + 2 mM …; cited from earlier work
[6] = molecular target: Protein A (cited studies) (UniProt P02976); experiment: MST; conditions: 5' thiol; BB: 100 mM NaCl, 20 mM Tris, 10 mM MgCl2, 5 mM KCl, 1 mM CaCl2, pH 7.6; MST in BBT (0.005% Tween 20) at 25 C, 2bind MST with 0.05% Tween 20; EIS in BB + 2 mM …; cited from earlier work

## ATACCAGCTTATTCAATTAGCAACATGAGGGGGATAGAGGGGGTGGGTTCTCTCGGCT [PAA, 3'-fluorescent]
Protein A [1]; BB + 0.05% Tween 20 (2bind), 3' C6 spacer, thiol
  Kd: 111 nM
Protein A [1]; BBT + 2 mM ferri-/ferrocyanide, 3' C6 spacer, thiol
  Kd: 16.4 nM
Protein A [1]; BBT, 0.005% Tween 20, no ferri-/ferrocyanide, 3' C6 spacer, thiol
  Kd: 22.4 nM

## ATACCAGCTTATTCAATTAGCAACATGAGGGGGATAGAGGGGGTGGGTTCTCTCGGCT [PAA, 5'-biotin]
[2]
  Kd: 23.7 nM

## ATACCAGCTTATTCAATTAGCAACATGAGGGGGATAGAGGGGGTGGGTTCTCTCGGCT [PAA (PA#2/8[S1-58]), 3'-thiol on gold]
Protein A [3]
  Kd: 18.5 nM

## ATACCAGCTTATTCAATTAGCAACATGAGGGGGATAGAGGGGGTGGGTTCTCTCGGCT [PAA, 3'-biotin]
[2]
  Kd: 11.3 nM
[4]
  Kd: 287 nM

## ATACCAGCTTATTCAATTAGCAACATGAGGGGGATAGAGGGGGTGGGTTCTCTCGGCT [PAA, 3'-amino]
[5]
  Kd: 14000 nM

## ATACCAGCTTATTCAATTAGCAACATGAGGGGGATAGAGGGGGTGGGTTCTCTCGGCT [PAA, 5'-fluorescent]
Protein A [1]; BB + 0.05% Tween 20 (2bind), 5' thiol
  Kd: 116 nM
[6]
  Kd: 94.7 nM
[4]; 5' thiol
  Kd: 1920 nM
